Results on twelve molecules are retold here after patent publication US20240287138A1 (Merck Sharp & Dohme, published 2024).

The chains are these.
T1: TNFR1 on THP-1 Lucia NF-κB cells (UniProt P19438 30-455, limits assumed)
T1 sequence (looked up): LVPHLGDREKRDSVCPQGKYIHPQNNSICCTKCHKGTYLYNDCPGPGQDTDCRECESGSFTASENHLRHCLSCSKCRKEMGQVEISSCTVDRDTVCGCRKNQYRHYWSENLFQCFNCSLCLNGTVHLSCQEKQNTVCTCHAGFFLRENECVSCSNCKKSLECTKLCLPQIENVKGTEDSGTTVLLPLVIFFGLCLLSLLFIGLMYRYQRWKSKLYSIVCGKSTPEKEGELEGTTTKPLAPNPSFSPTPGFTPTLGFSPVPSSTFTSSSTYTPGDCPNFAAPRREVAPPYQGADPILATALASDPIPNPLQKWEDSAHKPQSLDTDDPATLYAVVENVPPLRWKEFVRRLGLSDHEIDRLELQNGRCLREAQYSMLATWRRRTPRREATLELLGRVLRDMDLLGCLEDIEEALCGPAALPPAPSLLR

B1: SEQ ID NO. 166 (peptide)
peptide: cyclo([bhcLeu][FX1][4Pal][NMeS]W[NMeE]N[4Pal][Trp(7-Cl)][αMeS][Phe(4-COOH)]Y[Sar][Trp(βS-Me,7-OMe)])
SMILES: COc1cccc2c([C@H](C)[C@@H]3NC(=O)CN(C)C(=O)[C@H](Cc4ccc(O)cc4)NC(=O)[C@H](Cc4ccc(C(=O)O)cc4)NC(=O)[C@](C)(CO)NC(=O)[C@H](Cc4c[nH]c5c(Cl)cccc45)NC(=O)[C@H](Cc4ccncc4)NC(=O)[C@H](CC(N)=O)NC(=O)[C@H](CCC(=O)O)N(C)C(=O)[C@H](Cc4c[nH]c5ccccc45)NC(=O)[C@H](CO)N(C)C(=O)[C@H](Cc4ccncc4)NC(=O)[C@H](CCC(=O)Nc4cccnc4)NC(=O)[C@@H]4CC[C@@H](C4)NC3=O)c[nH]c12
B2: SEQ ID NO. 167 (peptide)
peptide: {CH2CO}-[Nle][4Pal][Pip(4-aza)]W[dPro4cPr]N[4Pal][Trp(7-Cl)][αMeS][Phe(4-COOH)]Y[Sar][Trp(βS-Me,7-OMe)]C-NH2
modifications: thioether N-14
SMILES: CCCC[C@@H]1NC(=O)CSC[C@@H](C(N)=O)NC(=O)[C@H]([C@@H](C)c2c[nH]c3c(OC)cccc23)NC(=O)CN(C)C(=O)[C@H](Cc2ccc(O)cc2)NC(=O)[C@H](Cc2ccc(C(=O)O)cc2)NC(=O)[C@](C)(CO)NC(=O)[C@H](Cc2c[nH]c3c(Cl)cccc23)NC(=O)[C@H](Cc2ccncc2)NC(=O)[C@H](CC(N)=O)NC(=O)[C@H]2CC3(CC3)CN2C(=O)[C@H](Cc2c[nH]c3ccccc23)NC(=O)[C@@H]2CNCCN2C(=O)[C@H](Cc2ccncc2)NC1=O
B3: SEQ ID NO. 178 (peptide)
peptide: cyclo([bhcLeu][Nle][4Pal][Pip(4-aza)]W[NMeE]N[4Pal][Trp(7-Cl)][αMeS][Phe(4-COOH)]H[Sar][Trp(βS-Me,7-OMe)])
SMILES: CCCC[C@@H]1NC(=O)[C@@H]2CC[C@@H](C2)NC(=O)[C@H]([C@@H](C)c2c[nH]c3c(OC)cccc23)NC(=O)CN(C)C(=O)[C@H](Cc2c[nH]cn2)NC(=O)[C@H](Cc2ccc(C(=O)O)cc2)NC(=O)[C@](C)(CO)NC(=O)[C@H](Cc2c[nH]c3c(Cl)cccc23)NC(=O)[C@H](Cc2ccncc2)NC(=O)[C@H](CC(N)=O)NC(=O)[C@H](CCC(=O)O)N(C)C(=O)[C@H](Cc2c[nH]c3ccccc23)NC(=O)[C@@H]2CNCCN2C(=O)[C@H](Cc2ccncc2)NC1=O
B4: SEQ ID NO. 182 (peptide)
peptide: cyclo([1S4RAcpc][Nle][4Pal][Pip(4-aza)]W[NMeE]N[4Pal][Trp(7-Cl)][αMeS][Phe(4-COOH)]Y[Sar][Trp(βS-Me,7-OMe)])
SMILES: CCCC[C@@H]1NC(=O)[C@@H]2C=C[C@@H](C2)NC(=O)[C@H]([C@@H](C)c2c[nH]c3c(OC)cccc23)NC(=O)CN(C)C(=O)[C@H](Cc2ccc(O)cc2)NC(=O)[C@H](Cc2ccc(C(=O)O)cc2)NC(=O)[C@](C)(CO)NC(=O)[C@H](Cc2c[nH]c3c(Cl)cccc23)NC(=O)[C@H](Cc2ccncc2)NC(=O)[C@H](CC(N)=O)NC(=O)[C@H](CCC(=O)O)N(C)C(=O)[C@H](Cc2c[nH]c3ccccc23)NC(=O)[C@@H]2CNCCN2C(=O)[C@H](Cc2ccncc2)NC1=O
B5: SEQ ID NO. 164 (peptide)
peptide: {CH2CO}-[Nle][Phe(4-CONH2)][Val(3-OH)][Trp(7-aza)][NMeE]N[4Pal][Trp(7-Cl)][αMeS][Phe(4-COOH)]Y[Sar][Trp(βS-Me,7-OMe)]C-NH2
modifications: thioether N-14
SMILES: CCCC[C@@H]1NC(=O)CSC[C@@H](C(N)=O)NC(=O)[C@H]([C@@H](C)c2c[nH]c3c(OC)cccc23)NC(=O)CN(C)C(=O)[C@H](Cc2ccc(O)cc2)NC(=O)[C@H](Cc2ccc(C(=O)O)cc2)NC(=O)[C@](C)(CO)NC(=O)[C@H](Cc2c[nH]c3c(Cl)cccc23)NC(=O)[C@H](Cc2ccncc2)NC(=O)[C@H](CC(N)=O)NC(=O)[C@H](CCC(=O)O)N(C)C(=O)[C@H](Cc2c[nH]c3ncccc23)NC(=O)[C@H](C(C)(C)O)NC(=O)[C@H](Cc2ccc(C(N)=O)cc2)NC1=O
B6: SEQ ID NO. 185 (peptide)
peptide: {CH2CO}-[Nle][4Pal][Pip(5R-OH)]W[dHyp]N[Phe(4-COOH)][Trp(7-Cl)][αMeS][Phe(4-CONH2)]Y[Sar][Trp(βS-Me,7-OMe)]C-NH2
modifications: thioether N-14
SMILES: CCCC[C@@H]1NC(=O)CSC[C@@H](C(N)=O)NC(=O)[C@H]([C@@H](C)c2c[nH]c3c(OC)cccc23)NC(=O)CN(C)C(=O)[C@H](Cc2ccc(O)cc2)NC(=O)[C@H](Cc2ccc(C(N)=O)cc2)NC(=O)[C@](C)(CO)NC(=O)[C@H](Cc2c[nH]c3c(Cl)cccc23)NC(=O)[C@H](Cc2ccc(C(=O)O)cc2)NC(=O)[C@H](CC(N)=O)NC(=O)[C@H]2C[C@H](O)CN2C(=O)[C@H](Cc2c[nH]c3ccccc23)NC(=O)[C@@H]2CC[C@@H](O)CN2C(=O)[C@H](Cc2ccncc2)NC1=O
B7: SEQ ID NO. 181 (peptide)
peptide: cyclo([bhcLeu][Nle][4Pal][Pip(4-aza)]W[NMeE][hSOMe][4Pal][Trp(7-Cl)][αMeS][Phe(4-COOH)]Y[Sar][Trp(βS-Me,7-OMe)])
SMILES: CCCC[C@@H]1NC(=O)[C@@H]2CC[C@@H](C2)NC(=O)[C@H]([C@@H](C)c2c[nH]c3c(OC)cccc23)NC(=O)CN(C)C(=O)[C@H](Cc2ccc(O)cc2)NC(=O)[C@H](Cc2ccc(C(=O)O)cc2)NC(=O)[C@](C)(CO)NC(=O)[C@H](Cc2c[nH]c3c(Cl)cccc23)NC(=O)[C@H](Cc2ccncc2)NC(=O)[C@H](CCOC)NC(=O)[C@H](CCC(=O)O)N(C)C(=O)[C@H](Cc2c[nH]c3ccccc23)NC(=O)[C@@H]2CNCCN2C(=O)[C@H](Cc2ccncc2)NC1=O
B8: SEQ ID NO. 175 (peptide)
peptide: cyclo([bhcLeu][Nle][4Pal][Pip(4-aza)]W[NMeE]N[4Pal][Trp(7-Cl)][αMeS][Phe(4-COOH)][Tyr(2-F)][Sar][Trp(βS-Me,7-OMe)])
SMILES: CCCC[C@@H]1NC(=O)[C@@H]2CC[C@@H](C2)NC(=O)[C@H]([C@@H](C)c2c[nH]c3c(OC)cccc23)NC(=O)CN(C)C(=O)[C@H](Cc2ccc(O)cc2F)NC(=O)[C@H](Cc2ccc(C(=O)O)cc2)NC(=O)[C@](C)(CO)NC(=O)[C@H](Cc2c[nH]c3c(Cl)cccc23)NC(=O)[C@H](Cc2ccncc2)NC(=O)[C@H](CC(N)=O)NC(=O)[C@H](CCC(=O)O)N(C)C(=O)[C@H](Cc2c[nH]c3ccccc23)NC(=O)[C@@H]2CNCCN2C(=O)[C@H](Cc2ccncc2)NC1=O
B9: SEQ ID NO. 145 (peptide)
peptide: cyclo([bhcLeu][Nle][4Pal][Pip(5R-OH)]W[NMeE]N[AEF][Trp(7-Cl)][αMeS][Phe(4-CONH2)]Y[Sar][Trp(βS-Me,7-OMe)])
SMILES: CCCC[C@@H]1NC(=O)[C@@H]2CC[C@@H](C2)NC(=O)[C@H]([C@@H](C)c2c[nH]c3c(OC)cccc23)NC(=O)CN(C)C(=O)[C@H](Cc2ccc(O)cc2)NC(=O)[C@H](Cc2ccc(C(N)=O)cc2)NC(=O)[C@](C)(CO)NC(=O)[C@H](Cc2c[nH]c3c(Cl)cccc23)NC(=O)[C@H](Cc2ccc(OCCN)cc2)NC(=O)[C@H](CC(N)=O)NC(=O)[C@H](CCC(=O)O)N(C)C(=O)[C@H](Cc2c[nH]c3ccccc23)NC(=O)[C@@H]2CC[C@@H](O)CN2C(=O)[C@H](Cc2ccncc2)NC1=O
B10: SEQ ID NO. 171 (peptide)
peptide: cyclo([bhcLeu][Nle][4Pal][Pip(4-aza)]W[NMeE]N[Phe(4-CH2SO3H)][Trp(7-Cl)][αMeS][Phe(4-COOH)]Y[Sar][Trp(βS-Me,7-OMe)])
SMILES: CCCC[C@@H]1NC(=O)[C@@H]2CC[C@@H](C2)NC(=O)[C@H]([C@@H](C)c2c[nH]c3c(OC)cccc23)NC(=O)CN(C)C(=O)[C@H](Cc2ccc(O)cc2)NC(=O)[C@H](Cc2ccc(C(=O)O)cc2)NC(=O)[C@](C)(CO)NC(=O)[C@H](Cc2c[nH]c3c(Cl)cccc23)NC(=O)[C@H](Cc2ccc(CS(=O)(=O)O)cc2)NC(=O)[C@H](CC(N)=O)NC(=O)[C@H](CCC(=O)O)N(C)C(=O)[C@H](Cc2c[nH]c3ccccc23)NC(=O)[C@@H]2CNCCN2C(=O)[C@H](Cc2ccncc2)NC1=O
B11: SEQ ID NO. 158 (peptide)
peptide: {CH2CO}-[Nle][4Pal][Pip2c][Trp(7-aza)][NMeE]N[4Pal][Trp(7-Cl)][αMeS][Phe(4-COOH)][TyrOCF3][Sar][Trp(βS-Me,7-OMe)]C-NH2
modifications: thioether N-14; reading uncertain; also: printed as cyclo(ClAc-Nle-4Pal-Pip2c-Trp7az-NMeE-N-4Pal-Trp7Cl-aMeS-Phe4COOH-TyrOCF3-Sar-SbMeW7OMe-C)-NH2
B12: SEQ ID NO. 177 (peptide)
peptide: {CH2CO}-[Nle][PyrimAla][Bhv][Trp(7-aza)][NMeE]N[4Pal][Trp(7-Cl)][αMeS][Phe(4-COOH)]Y[Sar][Trp(βS-Me,7-OMe)]C-NH2
modifications: thioether N-14; reading uncertain; also: printed as cyclo(ClAc-Nle-PyrimAla-Bhv-Trp7az-NMeE-N-4Pal-Trp7Cl-aMeS-Phe4COOH-Y-Sar-SbMeW7OMe-C)-NH2

Numbered stars: 1 amine (or outer) side, 2 acyl side, 3 side chain; on linkers, the order of the positions; unused ones are H or OH. Bridge positions count the residues as written; N and C are the ends. Square brackets hold non-standard residues; d marks the D form. 1S4RAcpc = (1S,4R)-4-Aminocyclopent-2-ene-1-carboxylic acid, O=C([C@@H]1C=C[C@H](N[*:1])C1)[*:2]; bhcLeu = (1R,3S)-3-aminocyclopentane-1-carboxylic acid, O=C([C@@H]1CC[C@H](N[*:1])C1)[*:2]; dPro4cPr = (R)-5-Azaspiro[2.4]heptane-6-carboxylic acid, O=C([C@H]1CC2(CC2)CN1[*:1])[*:2]; FX1 = N5-(Pyridin-3-yl)-L-glutamine, O=C(CC[C@H](N[*:1])C(=O)[*:2])Nc1cccnc1; hSOMe = (S)-2-Amino-4-methoxybutanoic acid, COCC[C@H](N[*:1])C(=O)[*:2]; Trp(βS-Me,7-OMe) = COc1cccc2c([C@H](C)[C@H](N)C(=O)O)c[nH]c12; Phe(4-CH2SO3H) = N[C@@H](Cc1ccc(CS(=O)(=O)O)cc1)C(=O)O; Trp(7-Cl) = N[C@@H](Cc1c[nH]c2c(Cl)cccc12)C(=O)O; Phe(4-CONH2) = NC(=O)c1ccc(C[C@H](N)C(=O)O)cc1; Phe(4-COOH) = N[C@@H](Cc1ccc(C(=O)O)cc1)C(=O)O; Trp(7-aza) = N[C@@H](Cc1c[nH]c2ncccc12)C(=O)O; Pip(5R-OH) = O=C(O)[C@@H]1CC[C@@H](O)CN1; Tyr(2-F) = N[C@@H](Cc1ccc(O)cc1F)C(=O)O; AEF = NCCOc1ccc(C[C@H](N)C(=O)O)cc1; Val(3-OH) = CC(C)(O)[C@H](N)C(=O)O; Pip(4-aza) = O=C(O)[C@@H]1CNCCN1; 4Pal = N[C@@H](Cc1ccncc1)C(=O)O; NMeE = CN[C@@H](CCC(=O)O)C(=O)O; dHyp = O=C(O)[C@H]1C[C@H](O)CN1; NMeS = CN[C@@H](CO)C(=O)O; αMeS = C[C@](N)(CO)C(=O)O; Nle = CCCC[C@H](N)C(=O)O; Pip2c = not defined here; Bhv = not defined here; Sar = CNCC(=O)O

The target in the assay is T1, TNFR1 on THP-1 Lucia NF-κB cells. The assay can be described thus: cell-based or functional assay.
In the case of B1, the “THP-1 IC50” value was 2.7 nM. As to B2, the “THP-1 IC50” value worked out at 2.6 nM. The result for B3 reads 3.3 nM. The result for B4 reads 0.9 nM.

Consider B5, for which the “THP-1 IC50” value stood at 3.6 nM. The result for B6 reads 0.9 nM; that for B7, 1.2 nM. Next, B8: 0.9 nM; B9: 0.8 nM. For B10, the “THP-1 IC50” value was 0.9 nM.

With B11, the “THP-1 IC50” value was determined as 5.3 nM.

In the case of B12, the “THP-1 IC50” value came to 3.3 nM.
